Measurements as given in the nanobody polyreactivity screen of Harvey et al. (2022).

Assay: yeast display, Sf9 membrane polyspecificity reagent, FACS + sequencing; frameworks hold sequencing errors
Outline: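 Nanobodies from a synthetic yeast display library (Saccharomyces cerevisiae BJ5465), induced 36–48 hours with galactose, were stained 1 hour at 4 °C with 10% biotinylated, detergent-solubilized Sf9 membrane reagent, enriched on streptavidin microbeads, then FACS-sorted. Anti-HA (expression) and streptavidin (reagent binding) fluorescence set low and high (top ~1%) gates. Polyreactivity labels come from the gate of origin. Genes were colony-PCR amplified, MiSeq 2 × 250 sequenced and filtered by CDR length.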

## QVQLVESGGGLVQAGGSLRLSCAASGGIFGKYVMGWYRQAPGKERELVAGISRSAGITYYADSVKGRFTISRDNAKNTVYLQMNSLKPEDTAVYYCNARAWSYPSYHVGYDYWGQGTQVTVSS
  polyreactivity (PSR sort gate): high polyreactivity

## QVQLVESGGGLVQAGGSLRLSCAASGSIFKVNTMGWYRQAPGKERELVAAISYSGGSTYYADSVKGRFTISRDHAKNTVYLQMNSLKPEDTAVYYCNVSPTTSGDGGGYDSWGQGTQVTVSS
  polyreactivity (PSR sort gate): low polyreactivity

## QVQLVESGGGLVQAGGSLRLSCAASGTIFGSNAMGWYRQAPGKERELVAAISWRGGRTYYADSVKGRFSISRDYAKNTVYLQMYSLKPVETAVYYCAKRWRRRFVDVWSLYDYWGQGTQVTVSS
  polyreactivity (PSR sort gate): low polyreactivity

## QVQLVESGGGLVQAGGSLRLSCAASGSIFSSYAMGWYRQAPGKERELVAAISSGDSTYYADSVKGRFTISRDNAKNTVYLQMNSLKPEDTAVYYCAAPWYAWGQGTQVTVSS
  polyreactivity (PSR sort gate): low polyreactivity

## QVQLVESGGGLVQAGGSLRLSCAASGRIFYYNTMGWYREAPGTERELVAAISSGAGRTYYADSVKGRFTISRDNAMNTVYLQMNSLKPEDTAVYYCAARFYVIKWYDYWGQGTQVTVSS
  polyreactivity (PSR sort gate): high polyreactivity

## QVQLVESGGGLVQAGGSLRLSCAASGRIFYPYAMGWYRQAPGKERELVAAIRWSSGNTRYADSVKGRFTISRDNAKNTVYLQMNSLKPEDTAVYYCAAPAVHILQTVSLTPRPLDYWGQGTQVTVSS
  polyreactivity (PSR sort gate): high polyreactivity

## QVQLVESGGGLVQAGGSLRLSCAASGSILIWNTMGWYRQAPGKERELVAAISISGGSTYYADSVKGRFTISRDNAKNTVYLQVNSLKPEDTAVYYCAAEVAYYYYSWGTSGYWGQGTQVTVSS
  polyreactivity (PSR sort gate): low polyreactivity

## QVQLVESGGGLVQAGGSLRLSCAASGSNFSSYAMGWYREAPGKERELVAAIDGSGGSTYADSVKGRFTISRDNAKNTVYLQMNSLKPEDTAVYYCAVDSFLVYSAVRPYDYWGQGTQVTVSS
  polyreactivity (PSR sort gate): low polyreactivity

## QVQLVESAGGLDQAGGSLRLSCAASGFTFVAYSMGLYRQAPGKERELVADISRGGSTFYADSVKGRFTISRDNAKISVYLQKNSLKPEDSAVYYCASTYIHSYGKFYYWGQGTQVTVSS
  polyreactivity (PSR sort gate): low polyreactivity

## HVQLVESGGGLVQAGGSLRLSCAASGFTIKYYGMGWYRQAPGKERELVAAISRRGGSTYYADSVKGRFTISRDNAKNTVYLQMNSLKPEDTAVYYCNAQFARSSGFNYWGQGTQVTVSS
  polyreactivity (PSR sort gate): high polyreactivity

## QVQLVESGGGLVQAGGSLRLSCAASGFISGSYAMGWYRQAPGKDREFVASISLSDGSTTYADSVKGRFTISRDTAKNPVYLQMNSLKPEDTAVYYCAVQFYYPFTGGTIYEYWGQGTQVTVAS
  polyreactivity (PSR sort gate): low polyreactivity

## QVQLVESGGGLVQAGGSLRLSCAASGGTFSFNAMGWSRQAPGKERELVATISWDGGSTYYADSVKGRFTISRDNAKNTVYLQMYSLKPEDTAVYYCNKYVFDRYIYETEYDYWGQGTQVTVSS
  polyreactivity (PSR sort gate): high polyreactivity

## QVQLVESGGGLVQAGGSLRLSCAASGFTFVWYAMGWYRQAPGKEREFVAAINRSGGSTYYADSVKGRFTISRDNAKNTVYLQMNSLKPEDTAVYYCAAESWRGWSEFYYWGQGTQVTVSS
  polyreactivity (PSR sort gate): high polyreactivity

## QVQLVESGGGLVQAGGSLRLSCAASGFTFRWNAMGWYRQAPGKERELVAAITNDDSTYYADSVKGRFTISRDNAKNTVYLQMNSLKPEDTAVYYCNADLTQYDAGFDYWGQGTQVTVSS
  polyreactivity (PSR sort gate): low polyreactivity

## QVQLVESGGGLVQAGGSLRLSCAASGRTSTIYTMGWYRQAPGKEREIVASISAGAGTYYADSVKGRFTISRDNAKNTVYLQLNSLKPEDTAVYYCNASVYWRSTRRHQMDYWGQGTQVTVSS
  polyreactivity (PSR sort gate): high polyreactivity

## QVQLEESGGGLVQAGVSLRLSCAASGFTFDRYAMGSYRQAPAKEREMVAALSRSGTSTYYADSVKGRFTISRDNAKYTVYLQMNSLKPEDNAVYYCATRYTVYFPSRLSQYDYWGQGTQVTVSS
  polyreactivity (PSR sort gate): high polyreactivity

## QVQLVESGGGLVQAGGSLRLSCAASGLIFDINAMGWYRQAPGKERELVAAITWRGGSTYYADSVKGRFTISRDNAKNTVYLQMNSLKPEDTAVYYCAAGWSYRNGVGVGDFYYGYDYWGQGTQVTVSS
  polyreactivity (PSR sort gate): high polyreactivity

## QVQLVESWGGLVKAGGSLRLSCAASGRTIRGYTMGWNRQAPGKQRELVAAISQSGGRTHYADSVKGRFTISRDNAKNTVYLEMKSLKPEDTAVYYCAARGQRERSYPLYDYWGQGTQVTVSS
  polyreactivity (PSR sort gate): high polyreactivity

## QVQLVESGGGLVQAGGSLRLSCAASGLIFSAYDMGWYRQAPGKERELVASITSGGSTYYADSVKGRFTISRDNAKNTVYLQMNSLKPEDTAVYYCNADGGWYPYRWRYIEGEYWGQGTQVTVSS
  polyreactivity (PSR sort gate): low polyreactivity

## QVQLVESGGGLVQAGGSLRLSCAASGSIFSINAMGWYRQAPGKERELVAAINGSGGNTYYADSVKGRFTISRDNAKNTVYLQMNSLKPEDTAVYYCAAEGYSYWSFDELDYWGQGTQVTVSS
  polyreactivity (PSR sort gate): low polyreactivity

## QVQLVESGGGLVQAGCSLRLSCAASGYMGWYRQAPGKERELVATISGSGGSTYYADSVKGRFTISRDNAKNTVYLQMNSLKPEDTAVYYCTTEIWGVNRSGYDYWGQGTQVTVSS
  polyreactivity (PSR sort gate): low polyreactivity

## QVQLVESGGGLVQAGGSLRLSCAASGSIFYINAMGWYRQAPGKERELVAAINRGGSTNYADSVKGRFTISRDNAKNTVYLQMYSLKPEDTAVYYCAAYIYKTYRYYYWGQGTQVTVSS
  polyreactivity (PSR sort gate): high polyreactivity

## QVQLVESGGCLVQAGGSLRLSCAASGSTFYLNAMGWYRQAPGKEREMVAAITVSGGSTYYADSVKGRFTISRDNAKNTVYLQMNSLKPVDTAVYFCSRELLCPTYQRWYYYWGLGTQVTVSS
  polyreactivity (PSR sort gate): low polyreactivity

## QVQLVESGGGLVQAGGSLRLSCAASGSIFYRYAMGWYRQAPGKERELVAAISDRSGSTYYADSVKGRFTISRDNAKNTVYLQMNSLKPEDTAVYYCAAAYNYRAAGYGLSRYYYWGQGTQVTVSS
  polyreactivity (PSR sort gate): high polyreactivity

## QVQLVESGGGLVQAGGSLRLSCASSGSTFAQNTMGWYRQAPRKERELVATISDGGGSTYYADSVKGRFTISRDNAKNTVYLQMNSLKPEDTAVYYCNTDRFWPSDYWGQGTQVTVSS
  polyreactivity (PSR sort gate): low polyreactivity

## QVHLVESGGGLVQAGGSLRLSCAASGLTFNRYTMGWYRQAPGKESELVAAITSSGSTYYADSVKGRFTISRDNAKNTVNLQMNSLKPEDTAVDYCNTVYYDWFHYDYWGQGTQVTVSS
  polyreactivity (PSR sort gate): high polyreactivity

## QVQRVESGGRLVQAGGSLRLSCAASGSTFPSYAMGWSRQAPGKERELVAAISWSGGTTYYADSVKGRFTISRDNAKNTVYLQMNSLKPEDTAVYYCAAGGRRQAYGRRDYWGQGNQVTVSS
  polyreactivity (PSR sort gate): high polyreactivity

## QVQLVESGGGLVQAGGSLRLSCAASGRTFYYYAMGWYRQAPGKEREFVAAIRFSGGNTYYADSVKGRFTISRDNAKNTVYLQMNSLKPVDTAVYYCAARRLLYKYWTGGPYDYWGQGTQVTVSS
  polyreactivity (PSR sort gate): high polyreactivity

## QVQLVESGGGLVQAGGSLRLSCAASGRIFRRYAMGWYRQAPGKERELVAAISTSGGSTYYADSVKGRFTISRDNAKNTVYLQMNSLKPEDTAVYYCNVYKPPTRGGVLQYGYWGQGTQVTVSS
  polyreactivity (PSR sort gate): low polyreactivity

## QVQLVESGGGLVQAGGSLRLSCAASGLTFNTSAMGWSRQAPGKEREWVAAITSSGSITYYADSVKGRFTISRDNAKNTVYLQMNSLKPEDTAVYYCAAAVGYYAFGTYPFDDWPYDYWGQGTQVTVSS
  polyreactivity (PSR sort gate): high polyreactivity

## QVQLVESGGGLGQAGGSLRLSCAASGRIFVGYAMGWYRQAPGKERELVAAIDVGGGSTYYADSVKGRFTISRDNAKNTVYLQMNSLKPEDTAVYYCAADAFGWSSYWPYDYWGQGTQVTVSS
  polyreactivity (PSR sort gate): low polyreactivity

## QVQLVESGGGLVQAGGSLRLSCAASGSIFGTYAMGWYRQAPGKERELVAAITGSGGRTYYADSVKGRFTISRDNAKNTVYLQLNSLKPEDTAVYYCNKVVYVRSYPPRYDYWGQGTQVTVSS
  polyreactivity (PSR sort gate): high polyreactivity

## QVQLVESGGGLVQAGGSLRLSCAASGFTFTYNAMGWYRQAPGKERELVARIRWSTGSTYYADSVKGRFTISRDNAKKTVYLQMNSLKPEDTAVYYCAADGYGWGGSGWQYPHGFGYWGQGTQVTVSS
  polyreactivity (PSR sort gate): low polyreactivity

## QVQLVESGGGLVQAGGSLRLSCAASGFTFWRYTMGWYRQAPGKERELVATIRRGTSTNYADSVKGRFTISRDNAKNTVYLQMNSLKPEDTAVYYCAADPWRYYVEYDYWGQGTQVTVSS
  polyreactivity (PSR sort gate): high polyreactivity

## QVQLVESGGGLVQAGGSLRLSCAASGSTSRTYAMGWYRQAPAKERELVAASSSSGGRTYYADSVKGRFTISRDNAKNTVYLQMNSMKPEDTAVYYCNARTYSYRGYNYWGQGTQVTVSS
  polyreactivity (PSR sort gate): high polyreactivity

## QVQLVESGGGLVQAGGSLRFSCAASGTFVPYAMGWYRQAPGKEMELVARITWRGGSTYYADSVKGRFTISRDNAKNTVYLQMNSLKPEDTAVYYCATVSDNRYYYWGQGSQVTVSS
  polyreactivity (PSR sort gate): low polyreactivity

## QVQHVESGGGLVQAGGSLRLSCAASGGTFGDYAMGWSRQAPGKEREFVASITRSVSNTYYADSVKGRFTISRDNAKNTVYLQMNSLKPEDTAVYYCNADRWYPWRYIMDYWGQGTQVTVSS
  polyreactivity (PSR sort gate): low polyreactivity

## QVQLVESGGGLVQAGGSLRLSCAASGSIFSPNARGWYRQAPGKEREVVAGISWSGDGTYYADSVKGRFTISRDYAKNTVYLQMNSLKPEDTAVYYCAARFGRYSHRYYYWGQGTQVTVSS
  polyreactivity (PSR sort gate): high polyreactivity

## QVQLVESGGGLVKAGVSLRLSSDASGRTFALYAMGWYRQAPGKERELVASIRGGGGTNYADSVKGRFTISRDNAKNTVYLQMNSLKPEDTAVYYCAARGYGYRGYYYWGQGTQVTVSS
  polyreactivity (PSR sort gate): high polyreactivity

## QVQLVESGGGLVQAGGSLRLSCAASGRTFNWYTMGWYRQAPGKERELVARINGRGGSTYYADSVKGRFTISRDNAKNTVYLQMNSLKPEDTAVYYCAADLHKLARYDYWGQGTQVTVSS
  polyreactivity (PSR sort gate): high polyreactivity

## QVQLVESGGGLVQAGGSLRLSCAASGFIFKSYAMGWYRQAPGKERELVAAISGRGGSTYYADSVKGRFTISRDNAKNTVYLQMNSLKPEDTAVYYCNVVPSTYYQYDYWGQGTQVTVSS
  polyreactivity (PSR sort gate): high polyreactivity

## QVQLVESGGGLVQAGGSLRLSCAASGSTFNGYTMGWYRQAPGKERELVAAISKSGGRTYYADSVKGRFTISRDNAKNTVYLQMNSLKPEDTAVYYCAAHFRALGIYYTYDYWGQGTQVTVSS
  polyreactivity (PSR sort gate): high polyreactivity

## QVQLVESGGGLVQAGGILRLSCAASGIIFRVNAMGWYRKAPGKERELVAAISGSGGRTYYADSVKGRFTISRDNAKNTVYLQMNSVKPEDTAVYYCAAHLLHYRGDYWGQGTQETVSS
  polyreactivity (PSR sort gate): high polyreactivity
